The nanobody polyreactivity screen of Harvey et al. (2022)

assay: yeast display, Sf9 membrane polyspecificity reagent, FACS + sequencing; frameworks hold sequencing errors
In short: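 Galactose induction of a Saccharomyces cerevisiae BJ5465 synthetic nanobody display library ran 36–48 hours. The cells were then stained for 1 hour at 4 °C with 10% biotinylated, detergent-solubilized Sf9 membrane reagent, pulled down on streptavidin microbeads and FACS-sorted into low and high (top ~1%) gates on expression and reagent-binding fluorescence. Labels for polyreactivity follow the gate of origin.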

Sequence | polyreactivity (PSR sort gate)
QVQLVESGGGLVQAGGSLRLSCAASGGIFGAYAMGWYRQAPGKERELVAASDLTDGDTYYADSVKGRFTSSRDNAKNTVYLQMNSLKPEATAVYYCAAEALYWVVDALDYEGDYWGQGTQVTVSS | high polyreactivity
QVQLVESGGGLVQAGGSLRLSCAASGGIFGYYVMGWYRQAPGKERELVAVITRGGSTNYADSVKGRFTISRDNAKNTVYLQMNSLKPEDTAVYYFAKDVPYRRVRSEYWGQGTQVTVSS | low polyreactivity
QVQLVESGGGLVQAGGSLRLSCAASGGIFHGYVMGWYRQEPGKERELVASIRTRGVRTYYADSVKGRFTISRDNAKNTVYLQMNSLKPEDTAVYYCNARGQVYSTLSSYRYDYWGQGTQVTVSS | high polyreactivity
QVQLVESGGGLVQAGGSLRLSCAASGGIFIVNAMGWYRPAPGKERELVAAITLSGGSTYYADSVKGRFTISRDNAKNTVYFQMNSLKPEDTAVYYCNKDYYPGSYDYWGQGTQVTVSS | low polyreactivity
QVQLVESGGGLVQAGGSLRLSCAASGGIFKRNTMGWYRQAPGKERELVAGISWTGGRTYYADSVKGRFTISSDNAKNNVYLPPNSLKPEDTAVYYCAAKPLQGVRRVEYWGQGTQVTVSS | high polyreactivity
QVQLVESGGGLVQAGGSLRLSCAASGGIFLYNAMGWYRQAPGKERELVAAISRSGGGTYYADSVKGRFTISRDNAKNTVYLQMNSLKPEDTAVYYCAKTLRAYSDYYYWGQGTQVTVSS | high polyreactivity
QVQLVESGGGLVQAGGSLRLSCAASGGIFNSYTMGWYRQAPGKERELVAAITKRGGSTYYADSVKGRFTISRYNAKNTVYLQMNSLKPEDTAVYYCAAGATVQFDYWGQGTQVTVSS | high polyreactivity
QVQLVESGGGLVQAGGSLRLSCAASGGIFPLYAMGWYRQAPGKERELVASITSGGSTYYADSVKGRFTISRDNAKNTVYLQMNSLKPEDTAVYYCAADLRITSYNSWGQGSQVTVSS | low polyreactivity
QVQLVESGGGLVQAGGSLRLSCAASGGIFPYYAMGWYRQAPGKERELVADISSGGSTYYADSVKGRFTISRDNAKNSVYLQMNSLKPDDTAVYYCAADAGQYFTYSGDDNHDYWGQGTQVTVSS | low polyreactivity
QVQLVESGGGLVQAGGSLRLSCAASGGIFQGYTMGWYRQAPGKERELVAAISRRGGSTYYADSVKGRFTNSRDNAKNTVYLQMNSVKPEDTAVYYCAAGKPLQLPRYDYWGQGTQVTVSS | low polyreactivity
QVQLVESGGGLVQAGGSLRLSCAASGGIFRDYAMGWSRQAPGKERELVAAISRSGDSTYYADSVKGRFTISRDNAKNTVYLQMNSLKPEDTAVYSCAADWLWAWHYYGAMDYWGQGTQVTVSS | high polyreactivity
QVQLVESGGGLVQAGGSLRLSCAASGGIFRKNAMGWYRQAPGKERELVAAISWDGDNTYADSVKGRFTISRDNAKNTVYLQMNSLKPEDTAVYYCAAETFTDYDYWGQGTQVTVSS | high polyreactivity
QVQLVESGGGLVQAGGSLRLSCAASGGIFRKYVMGWYRQAPGKERELVAAISTSGGSTYYADSVKGRFTISRDNAKNSVYLQMNSLKPEDTAVYYCAADILYFYGPRVFEFNYWGQGTQVTVSS | high polyreactivity
QVQLVESGGGLVQAGGSLRLSCAASGGIFRWYAMGWYRQAPGKEREFVAVITTDGGSTYYADSVKGRFTISRDNAKNTVYLQMNSLKPEDTAVYYCAADYTLIYDYWGQGTQVTVSS | low polyreactivity
QVQLVESGGGLVQAGGSLRLSCAASGGIFSLYAMGWYRQAPGKERELVAAISRRGTITYYADSVKGRFTISRDNAMNTVYLQMNSLKPEDTAVYYCAALWHAVFYADYDYWGQGTQVTVSS | high polyreactivity
QVQLVESGGGLVQAGGSLRLSCAASGGIFSRNAMGWYRQAPGKERELVADISRTGDSTYYADSVKGRFTISRDNAKNTVYLQMNSLKPEDTAVYYCNRDAFVGDRTVRVTTTNWGQGTQVTVSS | low polyreactivity
QVQLVESGGGLVQAGGSLRLSCAASGGIFSRYAMGWYRQAPGKEREFVAAISFSGASTYYTDSVKGRFTISRDTAKNTVYLQMNSLKPEDTAVYYCAAYWDAEGRRYTRLDYWGQGTQVTVSS | low polyreactivity
